What is called stoichiometry N is the number of molecules, sites or subunits per partner or assembly.

Assay [1] deals with cis-epoxysuccinate hydrolase producing L(+)-tartaric acid from Klebsiella sp. BK-58 (KlCESH[L]) (Klebsiella sp. BK-58). The experiment in a line: SEC; gel filtration of the purified enzyme against a molecular standard mixture (ovalbumin, chymotrypsin, ribonuclease A, aprotinin); aggregation state of RhCESH[L] unchanged in the presence or absence of DTT. A general note: SEC sorts molecules by how far they enter the pores of the column.

For assay [2], the target named is cis-epoxysuccinate hydrolase producing L(+)-tartaric acid from Rhodococcus opacus (RhCESH[L]) (Rhodococcus opacus). The assay is described as above.

For the substance “cis-epoxysuccinate hydrolase producing L(+)-tartaric acid from Klebsiella sp. BK-58 (KlCESH[L]) (enzyme)”, in assay [1], the stoichiometry N came out at 2.
For the substance “cis-epoxysuccinate hydrolase producing L(+)-tartaric acid from Rhodococcus opacus (RhCESH[L]) (enzyme)”, in assay [2], the stoichiometry N is 2.

Source of the values: paper PMC10869282.
